Residue numbers refer to the chain shown, from its start. Each block holds one binder with its values, some of them ahead of it.
What was measured:
[1] = molecular target: T1, recombinant human VEGF165 (human, UniProt P15692-4 27-191); assay: hVEGF165/hVEGFR2-Fc competition ELISA
T1 construct: also called hVEGF165; rhVEGF165
Target sequence in this assay (P15692 other isoform, or with tags, fused parts or gaps limits assumed): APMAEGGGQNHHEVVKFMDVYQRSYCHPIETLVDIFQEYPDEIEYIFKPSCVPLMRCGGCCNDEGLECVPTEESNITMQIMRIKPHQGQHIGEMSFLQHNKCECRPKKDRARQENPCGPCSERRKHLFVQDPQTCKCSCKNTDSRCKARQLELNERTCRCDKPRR

[2] = molecular target: T1, recombinant human VEGF165; assay: binding ELISA, coated rhVEGF165
[3] = molecular target: T2, recombinant mouse VEGF164 (mouse, UniProt Q00731-2 27-190); assay: binding ELISA, coated rmVEGF164
T2 construct: biotinylated in the mVEGFR2 AlphaScreen; also called rmVEGF164; mVEGF164
T2 sequence (looked up): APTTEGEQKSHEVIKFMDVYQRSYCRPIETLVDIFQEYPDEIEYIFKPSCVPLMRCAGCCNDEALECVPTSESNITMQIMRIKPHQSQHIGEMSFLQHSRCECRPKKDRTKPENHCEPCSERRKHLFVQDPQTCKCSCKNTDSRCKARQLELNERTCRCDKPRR
Protocol: Cross-reactivity to mouse VEGF164 is determined using a binding ELISA. […] Wells are blocked with a casein solution (1% in PBS). […] A mouse VEGF164 reactive mAb is included as positive control.

[4] = molecular target: T3, recombinant human VEGF121 (human, UniProt P15692-9 27-147); assay: binding ELISA, coated rhVEGF121
T3 construct: also called rhVEGF121; hVEGF121
T3 sequence (looked up): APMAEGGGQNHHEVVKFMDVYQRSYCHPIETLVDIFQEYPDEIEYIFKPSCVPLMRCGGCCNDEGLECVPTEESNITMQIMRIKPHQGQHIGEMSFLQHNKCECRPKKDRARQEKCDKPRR
Protocol: Binding to recombinant human VEGF121 is assessed via a solid phase binding ELISA. Briefly, recombinant human VEGF121 (R&D Systems, Minneapolis, Minn., USA) is coated overnight at 4° C. at 1 μg/mL in a 96-well MaxiSorp plate (Nunc, Wiesbaden, Germany). Wells are blocked with a casein solution (1% in PBS).

[5] = molecular target: T1, recombinant human VEGF165; assay: ka1; SPR Biacore T100, hVEGF165 on chip, Two State Reaction model
Protocol: Samples are injected for 2 min and allowed to dissociate up to 20 min at a flow rate of 45 μI/min. In between sample injections, the chip surface is regenerated with 100 mM HCl. HBS-EP+(Hepes buffer pH7.4+EDTA) is used as running buffer. Binding curves are fitted using a Two State Reaction model by Biacore T100 Evaluation Software v2.0.1.
^{(a)}Heterogeneous binding curve resulting in no 1:1 fit, curves are fitted using a Two State Reaction model by Biacore T100 Evaluation Software v2.0.1
Target sequence in this assay (P15692 other isoform, or with tags, fused parts or gaps limits assumed): as the sequence (P15692 other isoform, or with tags, fused parts or gaps limits assumed) above

[6] = molecular target: T1, recombinant human VEGF165; assay: AlphaScreen competition, 0.05 nM hVEGF165 and 0.05 nM hVEGFR2-Fc; blocked: hVEGFR2-Fc
Target sequence in this assay (P15692 other isoform, or with tags, fused parts or gaps limits assumed): as the sequence (P15692 other isoform, or with tags, fused parts or gaps limits assumed) above

[7] = molecular target: T1, recombinant human VEGF165; assay: kd1; SPR Biacore T100 on hVEGF165
Target sequence in this assay (P15692 other isoform, or with tags, fused parts or gaps limits assumed): as the sequence (P15692 other isoform, or with tags, fused parts or gaps limits assumed) above

[8] = molecular target: T1, recombinant human VEGF165; assay: competition AlphaScreen, blocking of hVEGF165 binding to hVEGFR2-Fc
Target sequence in this assay (P15692 other isoform, or with tags, fused parts or gaps limits assumed): as the sequence (P15692 other isoform, or with tags, fused parts or gaps limits assumed) above

[9] = molecular target: T1, recombinant human VEGF165; assay: AlphaScreen competition, 0.05 nM hVEGF165 and 0.05 nM hVEGFR2-Fc; blocked: hVEGFR2-Fc; remark: listed apart in the source
[10] = molecular target: T1, recombinant human VEGF165; assay: AlphaScreen competition, 0.05 nM hVEGF165 and 0.05 nM hVEGFR1-Fc; blocked: hVEGFR1-Fc
Target sequence in this assay (P15692 other isoform, or with tags, fused parts or gaps limits assumed): as the sequence (P15692 other isoform, or with tags, fused parts or gaps limits assumed) above

[11] = molecular target: T1, recombinant human VEGF165; assay: AlphaScreen competition, 0.05 nM hVEGF165 and 0.05 nM hVEGFR2-Fc; blocked: hVEGFR2-Fc; remark: listed apart in the source
[12] = molecular target: T1, recombinant human VEGF165; assay: AlphaScreen competition, 0.05 nM hVEGF165 and 0.05 nM hVEGFR1-Fc; blocked: hVEGFR1-Fc; remark: listed apart in the source

% inhibition [1]: 100%
IC50 [1]: 2.1 nM
EC50 [2]: 0.297 nM
binding result [3]: no binding (tested: 500 nM-32 pM)
EC50 [4]: 0.51 nM
kon [5]: 210000 M⁻¹ s⁻¹
B1: VEGFBII23B04 (VHH)
VHH: EVQLVESGGGLVQTGDSLRLSCEVSGRTFSSYSMGWFRQAQGKEREFVVAISKGGYKYDSVSLEGRFTISKDNAKNTVYLQINSLKPEDTAVYYCASSRAYGSSRLRLADTYEYWGQGTQVTVSS
notes: also called VEGFBII23B4; VEGFBII23B04 (wt)

IC50 (read off the curve) [6]: ~0.5 nM
koff [7]: 0.013 s⁻¹
IC50 (read off the curve) [8]: ~0.4 nM
IC50 (read off the curve) [9]: ~0.5 nM
IC50 (read off the curve) [10]: ~0.3 nM
IC50 (read off the curve) [11]: ~0.4 nM
IC50 (read off the curve) [12]: ~0.5 nM
B2: VEGFBII038 (VHH)
VHH: B1 VHH with E1D, T14P, D16G, E23A, V24A, Q41P, S60A, K71R, K86R, Q120L
notes: also called VEGFBII0038; VEGFBII00038

Reference: patent publication US20170247475A1 (Boehringer Ingelheim, published 2017)
